{
  "source": "patent US20210388087A1",
  "about": "(Chugai, published 2021)",
  "binders": {"B1": {"name": "H183/L072 VH A32Y (antibody, name in Kabat numbering, V domains shown)", "VH": "QVQLVESGGGLVQPGRSLRLSCAASGFTFSNYWMHWVRQAPGKGLEWVAQIKDKGNAYAAYYAPSVKGRFTISRDDSKNSIYLQMNSLKTEDTAVYYCHYVHYASASTVLPAFGVDAWGQGTTVTVSS", "VL": "DIVMTQSPLSLPVTPGEPASISCQASQELVHMNRNTYLHWYQQKPGQAPRLLIYKVSNRFPGVPDRFSGSGSGTDFTLKISRVEAEDVGVYYCAQGTSVPFTFGQGTKLEIK"}, "B2": {"name": "H183/L072 VH A54T (antibody, name in Kabat numbering, V domains shown)", "VH": "B1 VH with Y32A, A57T", "VL": "B1 VL"}, "B3": {"name": "H183/L072 VH A56Q (antibody, name in Kabat numbering, V domains shown)", "VH": "B1 VH with Y32A, A59Q", "VL": "B1 VL"}, "B4": {"name": "H183/L072 VH A56N (antibody, name in Kabat numbering, V domains shown)", "VH": "B1 VH with Y32A, A59N", "VL": "B1 VL"}, "B5": {"name": "H183/L072 VH A57E (antibody, name in Kabat numbering, V domains shown)", "VH": "B1 VH with Y32A, A60E", "VL": "B1 VL"}, "B6": {"name": "H183/L072 VH A56T (antibody, name in Kabat numbering, V domains shown)", "VH": "B1 VH with Y32A, A59T", "VL": "B1 VL"}, "B7": {"name": "H183/L072 VH A56W (antibody, name in Kabat numbering, V domains shown)", "VH": "B1 VH with Y32A, A59W", "VL": "B1 VL"}, "B8": {"name": "H183/L072 VH A56S (antibody, name in Kabat numbering, V domains shown)", "VH": "B1 VH with Y32A, A59S", "VL": "B1 VL"}, "B9": {"name": "H183/L072 VH A54H (antibody, name in Kabat numbering, V domains shown)", "VH": "B1 VH with Y32A, A57H", "VL": "B1 VL"}, "B10": {"name": "H183/L072 VH A54Y (antibody, name in Kabat numbering, V domains shown)", "VH": "B1 VH with Y32A, A57Y", "VL": "B1 VL"}, "B11": {"name": "H183/L072 VH A56M (antibody, name in Kabat numbering, V domains shown)", "VH": "B1 VH with Y32A, A59M", "VL": "B1 VL"}, "B12": {"name": "H183/L072 VH A57H (antibody, name in Kabat numbering, V domains shown)", "VH": "B1 VH with Y32A, A60H", "VL": "B1 VL"}, "B13": {"name": "H183/L072 VH A54F (antibody, name in Kabat numbering, V domains shown)", "VH": "B1 VH with Y32A, A57F", "VL": "B1 VL"}, "B14": {"name": "H183/L072 VH A57F (antibody, name in Kabat numbering, V domains shown)", "VH": "B1 VH with Y32A, A60F", "VL": "B1 VL"}, "B15": {"name": "H183/L072 VH A56G (antibody, name in Kabat numbering, V domains shown)", "VH": "B1 VH with Y32A, A59G", "VL": "B1 VL"}, "B16": {"name": "H183/L072 VH A56I (antibody, name in Kabat numbering, V domains shown)", "VH": "B1 VH with Y32A, A59I", "VL": "B1 VL"}, "B17": {"name": "H183/L072 VH A54E (antibody, name in Kabat numbering, V domains shown)", "VH": "B1 VH with Y32A, A57E", "VL": "B1 VL"}, "B18": {"name": "H183/L072 VH A56F (antibody, name in Kabat numbering, V domains shown)", "VH": "B1 VH with Y32A, A59F", "VL": "B1 VL"}, "B19": {"name": "H183/L072 VH A57L (antibody, name in Kabat numbering, V domains shown)", "VH": "B1 VH with Y32A, A60L", "VL": "B1 VL"}, "B20": {"name": "H183/L072 VH A56K (antibody, name in Kabat numbering, V domains shown)", "VH": "B1 VH with Y32A, A59K", "VL": "B1 VL"}, "B21": {"name": "H183/L072 VH A54Q (antibody, name in Kabat numbering, V domains shown)", "VH": "B1 VH with Y32A, A57Q", "VL": "B1 VL"}, "B22": {"name": "H183/L072 VH A57K (antibody, name in Kabat numbering, V domains shown)", "VH": "B1 VH with Y32A, A60K", "VL": "B1 VL"}, "B23": {"name": "H183/L072 VH A54I (antibody, name in Kabat numbering, V domains shown)", "VH": "B1 VH with Y32A, A57I", "VL": "B1 VL"}, "B24": {"name": "H183/L072 VH A54L (antibody, name in Kabat numbering, V domains shown)", "VH": "B1 VH with Y32A, A57L", "VL": "B1 VL"}, "B25": {"name": "H183/L072 VH A56D (antibody, name in Kabat numbering, V domains shown)", "VH": "B1 VH with Y32A, A59D", "VL": "B1 VL"}, "B26": {"name": "H183/L072 VH A56H (antibody, name in Kabat numbering, V domains shown)", "VH": "B1 VH with Y32A, A59H", "VL": "B1 VL"}, "B27": {"name": "H183/L072 VH A54W (antibody, name in Kabat numbering, V domains shown)", "VH": "B1 VH with Y32A, A57W", "VL": "B1 VL"}, "B28": {"name": "H183/L072 VH A54G (antibody, name in Kabat numbering, V domains shown)", "VH": "B1 VH with Y32A, A57G", "VL": "B1 VL"}, "B29": {"name": "H183/L072 VH A54D (antibody, name in Kabat numbering, V domains shown)", "VH": "B1 VH with Y32A, A57D", "VL": "B1 VL"}, "B30": {"name": "H183/L072 VH A57G (antibody, name in Kabat numbering, V domains shown)", "VH": "B1 VH with Y32A, A60G", "VL": "B1 VL"}, "B31": {"name": "H183/L072 VH A54N (antibody, name in Kabat numbering, V domains shown)", "VH": "B1 VH with Y32A, A57N", "VL": "B1 VL"}, "B32": {"name": "H183/L072 VH A54R (antibody, name in Kabat numbering, V domains shown)", "VH": "B1 VH with Y32A, A57R", "VL": "B1 VL"}, "B33": {"name": "H183/L072 VH A56L (antibody, name in Kabat numbering, V domains shown)", "VH": "B1 VH with Y32A, A59L", "VL": "B1 VL"}, "B34": {"name": "H183/L072 VH A57I (antibody, name in Kabat numbering, V domains shown)", "VH": "B1 VH with Y32A, A60I", "VL": "B1 VL"}, "B35": {"name": "H183/L072 VH A54S (antibody, name in Kabat numbering, V domains shown)", "VH": "B1 VH with Y32A, A57S", "VL": "B1 VL"}, "B36": {"name": "H183/L072 VH A56R (antibody, name in Kabat numbering, V domains shown)", "VH": "B1 VH with Y32A, A59R", "VL": "B1 VL"}, "B37": {"name": "H183/L072 VH A57D (antibody, name in Kabat numbering, V domains shown)", "VH": "B1 VH with Y32A, A60D", "VL": "B1 VL"}, "B38": {"name": "H183/L072 VH A56E (antibody, name in Kabat numbering, V domains shown)", "VH": "B1 VH with Y32A, A59E", "VL": "B1 VL"}, "B39": {"name": "H183/L072 VH A56V (antibody, name in Kabat numbering, V domains shown)", "VH": "B1 VH with Y32A, A59V", "VL": "B1 VL"}, "B40": {"name": "H183/L072 VH A56P (antibody, name in Kabat numbering, V domains shown)", "VH": "B1 VH with Y32A, A59P", "VL": "B1 VL"}, "B41": {"name": "H183/L072 VH A54K (antibody, name in Kabat numbering, V domains shown)", "VH": "B1 VH with Y32A, A57K", "VL": "B1 VL"}, "B42": {"name": "H183/L072 VH A54V (antibody, name in Kabat numbering, V domains shown)", "VH": "B1 VH with Y32A, A57V", "VL": "B1 VL"}, "B43": {"name": "H183/L072 VH A54M (antibody, name in Kabat numbering, V domains shown)", "VH": "B1 VH with Y32A, A57M", "VL": "B1 VL"}, "B44": {"name": "H183/L072 VH A56Y (antibody, name in Kabat numbering, V domains shown)", "VH": "B1 VH with Y32A, A59Y", "VL": "B1 VL"}, "B45": {"name": "H183/L072 VH A54P (antibody, name in Kabat numbering, V domains shown)", "VH": "B1 VH with Y32A, A57P", "VL": "B1 VL"}},
  "note": "Numbering of substitutions follows the chain as printed. Names and notes keep the numbering of the source.",
  "data": [
    {"molecular_target": "T1, Human CD3eg linker (human)", "T1 construct": "Single chain: epsilon and gamma subunits of human CD3 joined by a 29-mer linker, Flag-tag at the C-terminus; also called recombinant human CD3", "T1 chain": "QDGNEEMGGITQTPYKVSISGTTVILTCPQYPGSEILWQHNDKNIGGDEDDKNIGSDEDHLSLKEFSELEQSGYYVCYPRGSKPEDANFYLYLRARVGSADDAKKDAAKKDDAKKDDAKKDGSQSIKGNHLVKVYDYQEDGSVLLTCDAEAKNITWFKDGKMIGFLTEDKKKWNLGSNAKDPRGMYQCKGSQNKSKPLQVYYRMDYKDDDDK", "test": "Biacore SPR, vs template H183/L072", "units": {"fold change of affinity": "fold"}, "values": [
      {"binder": "B1", "fold change of affinity": 0},
      {"binder": "B2", "fold change of affinity": 0.9},
      {"binder": "B3", "fold change of affinity": 1},
      {"binder": "B4", "fold change of affinity": 0.9},
      {"binder": "B5", "fold change of affinity": 1},
      {"binder": "B6", "fold change of affinity": 0.7},
      {"binder": "B7", "fold change of affinity": 0.8},
      {"binder": "B8", "fold change of affinity": 0.9},
      {"binder": "B9", "fold change of affinity": 1.1},
      {"binder": "B10", "fold change of affinity": 1},
      {"binder": "B11", "fold change of affinity": 1},
      {"binder": "B12", "fold change of affinity": 0.9},
      {"binder": "B13", "fold change of affinity": 1.2},
      {"binder": "B14", "fold change of affinity": 0.4},
      {"binder": "B15", "fold change of affinity": 0.7},
      {"binder": "B16", "fold change of affinity": 0.6},
      {"binder": "B17", "fold change of affinity": 1},
      {"binder": "B18", "fold change of affinity": 0.6},
      {"binder": "B19", "fold change of affinity": 0.5},
      {"binder": "B20", "fold change of affinity": 1.3},
      {"binder": "B21", "fold change of affinity": 1.1},
      {"binder": "B22", "fold change of affinity": 1.5},
      {"binder": "B23", "fold change of affinity": 0.7},
      {"binder": "B24", "fold change of affinity": 1.1},
      {"binder": "B25", "fold change of affinity": 0.5},
      {"binder": "B26", "fold change of affinity": 0.9},
      {"binder": "B27", "fold change of affinity": 1.1},
      {"binder": "B28", "fold change of affinity": 1},
      {"binder": "B29", "fold change of affinity": 0.9},
      {"binder": "B30", "fold change of affinity": 0.7},
      {"binder": "B31", "fold change of affinity": 1.1},
      {"binder": "B32", "fold change of affinity": 1.1},
      {"binder": "B33", "fold change of affinity": 0.7},
      {"binder": "B34", "fold change of affinity": 0.6},
      {"binder": "B35", "fold change of affinity": 1},
      {"binder": "B36", "fold change of affinity": 1.3},
      {"binder": "B37", "fold change of affinity": 1},
      {"binder": "B38", "fold change of affinity": 0.6},
      {"binder": "B39", "fold change of affinity": 0.7},
      {"binder": "B40", "fold change of affinity": 0.3},
      {"binder": "B41", "fold change of affinity": 1.1},
      {"binder": "B42", "fold change of affinity": 0.7},
      {"binder": "B43", "fold change of affinity": 1},
      {"binder": "B44", "fold change of affinity": 0.7},
      {"binder": "B45", "fold change of affinity": 0}
    ]}
  ]
}
